Data taken from patent US20240002497A1 (Merck Sharp & Dohme, published 2024).
Substitutions are numbered along the chain they refer to. Names may count otherwise. Values belong to the binder of their own block, whether it stands above or below them.

How the values were obtained:
huNav1.7α + β1-β2-β3 = molecular target: T1, huNav1.7α + β1-β2-β3 (human, UniProt Q15858 1-1988; A5A6L6 19-218; O60939 30-215; Q2KI11 23-215); test: binding FACS, CHO FlpIn
T1 construct: also called huNav1.7-beta1-beta2-beta3; huNav1.7-β1-β2-β3
Procedure: (§1) Binding of the ISVDs to cell-expressed Nav1.7α was detected via murine anti-Flag (Sigma, catalog #F1804). Briefly, cells were resuspended in FACS buffer (PBS, 10% FBS, NaN₃) and transferred to a 96-well V-bottom plate at 1×10^5 cells/well. Purified FLAG3-tagged ISVD was diluted in FACS buffer and added to the cells for 30 minutes at 4° C. […] Prior to the read-out, the samples were resuspended in 1 μg/mL propidium iodide (Sigma, catalog #P4170) to exclude dead cells. Between each step, the cells were centrifuged for 5 minutes at 200 grams and washed with 100 μL/well FACS buffer.

rhNav1.7α + β1-β2-β3 = molecular target: T2, rhNav1.7α + β1-β2-β3 (rhesus monkey); test: binding FACS, CHO FlpIn
T2 construct: also called rhNav1.7-beta1-beta2-beta3; rhNav1.7-β1-β2-β3
Procedure: as §1

[1] = molecular target: T3, huNav1.7α + β1-β2-β3 (human Nav1.7α co-expressed with human Navβ1, Navβ2 and Navβ3 on cells) (human); test: binding FACS, CHO FlpIn cells
T3 construct: also called huNav1.7-beta1-beta2-beta3; CHO FlpIn huNav1.7α + β1-β2-β3
Procedure: as §1

[2] = molecular target: T4, rhNav1.7α + β1-β2-β3 (rhesus Nav1.7α co-expressed with Navβ1, Navβ2 and Navβ3 on cells) (rhesus monkey (α subunit); β subunits …); test: binding FACS, CHO FlpIn cells
T4 construct: also called rhNav1.7-beta1-beta2-beta3; CHO FlpIn rhNav1.7α + β1-β2-β3
Procedure: as §1

Bmax (huNav1.7α + β1-β2-β3): 100%
EC50 (huNav1.7α + β1-β2-β3): 5 nM
Bmax (rhNav1.7α + β1-β2-β3): 99%
EC50 (rhNav1.7α + β1-β2-β3): 12 nM
B1: F010302346 (VHH)
VHH: EVQLVESGGGVVQPGGSLRLSCAASHRAFIRDVFTGWYRQAPGKQRELVARIYESGNTQYADSAKGRFTISRDNAKKTVYLQMNSLRPEDTALYYCLFSGTISTGREYRSGDYWGQGTLVTVSS

Bmax (huNav1.7α + β1-β2-β3): 100%
EC50 (huNav1.7α + β1-β2-β3): 4.8 nM
Bmax (rhNav1.7α + β1-β2-β3): 92%
EC50 (rhNav1.7α + β1-β2-β3): 11 nM
B2: F010302361 (VHH)
VHH: B1 VHH with A28Q, S55G, A64V

Bmax (huNav1.7α + β1-β2-β3): 100%
EC50 (huNav1.7α + β1-β2-β3): 4.2 nM
Bmax (rhNav1.7α + β1-β2-β3): 93%
EC50 (rhNav1.7α + β1-β2-β3): 7.9 nM
B3: F010302353 (VHH)
VHH: B1 VHH with A28Q, Q40R, S55G, A64V

Bmax (huNav1.7α + β1-β2-β3): 100%
EC50 (huNav1.7α + β1-β2-β3): 4.2 nM
Bmax (rhNav1.7α + β1-β2-β3): 96%
EC50 (rhNav1.7α + β1-β2-β3): 7.9 nM
B4: F010302354 (VHH)
VHH: B1 VHH with Q40R, A64V

Bmax (huNav1.7α + β1-β2-β3): 100%
EC50 (huNav1.7α + β1-β2-β3): 3.6 nM
Bmax (rhNav1.7α + β1-β2-β3): 60%
EC50 (rhNav1.7α + β1-β2-β3): 11 nM
B5: F010302352 (VHH)
VHH: B1 VHH with A28Q, Q40R, E54N, S55E, A64V

Bmax (huNav1.7α + β1-β2-β3): 100%
EC50 (huNav1.7α + β1-β2-β3): 5.6 nM
Bmax (rhNav1.7α + β1-β2-β3): 72%
EC50 (rhNav1.7α + β1-β2-β3): 15 nM
B6: F010302351 (VHH)
VHH: B1 VHH with H26S, A28Q, Q40R, A64V

Bmax (huNav1.7α + β1-β2-β3): 100%
EC50 (huNav1.7α + β1-β2-β3): 3.5 nM
Bmax (rhNav1.7α + β1-β2-β3): 46%
EC50 (rhNav1.7α + β1-β2-β3): 15 nM
B7: F010302350 (VHH)
VHH: B1 VHH with H26S, A28Q, Q40R, E54N, S55E, A64V

Bmax (huNav1.7α + β1-β2-β3): 100%
EC50 (huNav1.7α + β1-β2-β3): 5.4 nM
Bmax (rhNav1.7α + β1-β2-β3): 89%
EC50 (rhNav1.7α + β1-β2-β3): 14 nM
B8: F010302362 (VHH)
VHH: B1 VHH with A64V

Bmax (huNav1.7α + β1-β2-β3): 100%
EC50 (huNav1.7α + β1-β2-β3): 3.5 nM
Bmax (rhNav1.7α + β1-β2-β3): 58%
EC50 (rhNav1.7α + β1-β2-β3): 15 nM
B9: F010302360 (VHH)
VHH: B1 VHH with A28Q, E54N, S55E, A64V

Bmax (huNav1.7α + β1-β2-β3): 100%
EC50 (huNav1.7α + β1-β2-β3): 7.2 nM
Bmax (rhNav1.7α + β1-β2-β3): 74%
EC50 (rhNav1.7α + β1-β2-β3): 17 nM
B10: F010302364 (VHH)
VHH: B1 VHH with V33L, Q59N, A64V

Bmax (huNav1.7α + β1-β2-β3): 100%
EC50 (huNav1.7α + β1-β2-β3): 6.7 nM
Bmax (rhNav1.7α + β1-β2-β3): 95%
EC50 (rhNav1.7α + β1-β2-β3): 14 nM
B11: F010302348 (VHH)
VHH: B1 VHH with V33L, Q59N

Bmax (huNav1.7α + β1-β2-β3): 100%
EC50 (huNav1.7α + β1-β2-β3): 6.4 nM
Bmax (rhNav1.7α + β1-β2-β3): 66%
EC50 (rhNav1.7α + β1-β2-β3): 24 nM
B12: F010302359 (VHH)
VHH: B1 VHH with H26S, A28Q, A64V

Bmax (huNav1.7α + β1-β2-β3): 100%
EC50 (huNav1.7α + β1-β2-β3): 4.5 nM
Bmax (rhNav1.7α + β1-β2-β3): 37%
EC50 (rhNav1.7α + β1-β2-β3): 37 nM
B13: F010302358 (VHH)
VHH: B1 VHH with H26S, A28Q, E54N, S55E, A64V

Bmax (huNav1.7α + β1-β2-β3): 100%
EC50 (huNav1.7α + β1-β2-β3): 5.3 nM
Bmax (rhNav1.7α + β1-β2-β3): 81%
EC50 (rhNav1.7α + β1-β2-β3): 12 nM
B14: F010302356 (VHH)
VHH: B1 VHH with V33L, Q40R, Q59N, A64V

Bmax [1]: 100%
EC50 [1]: 24 nM
Bmax [2]: 100%
EC50 [2]: 18 nM
B15: F010302312 (VHH)
VHH: EVQLVESGGGVVQPGGSLRLSCAASGPVFNINRMAWYRQAPGKQRELVAYVTPTGDISYADSVKGRFTISRDGSKRVYLQMNSLRPEDTALYYCRALLQPDSYSITRTYWGQGTLVTVSS
notes: also called F0103387G04(L11V, A12V, K33R, R39Q, S50Y, S56D, T60A, W78V, S79Y, T83R, V89L, N93R, N100cI)

Bmax [1]: 91%
EC50 [1]: 6.8 nM
Bmax [2]: 13%
EC50 [2]: 19 nM
B16: F010302317 (VHH)
VHH: B15 VHH with G73R, D101R
notes: also called F0103387G04(L11V, A12V, K33R, R39Q, S50Y, S56D, T60A, G73R, W78V, S79Y, T83R, V89L, N93R, D99R, N100cI)-FLAG3-HIS6

Bmax [1]: 100%
EC50 [1]: 14 nM
Bmax [2]: 100%
EC50 [2]: 7.6 nM
B17: F010301841 (VHH)
VHH: B15 VHH with A60T, V77W, Y78S, I105N
notes: also called F0103387G04(L11V, A12V, K33R, R39Q, S50Y, S56D, T83R, V89L, N93R)

Bmax [1]: 100%
EC50 [1]: 16 nM
Bmax [2]: 98%
EC50 [2]: 14 nM
B18: F010302314 (VHH)
VHH: B15 VHH with G73R
notes: also called F0103387G04(L11V, A12V, K33R, R39Q, S50Y, S56D, T60A, G73R, W78V, S79Y, T83R, V89L, N93R, N100cI)

Bmax [1]: 100%
EC50 [1]: 18 nM
Bmax [2]: 100%
EC50 [2]: 9.3 nM
B19: F010301843 (VHH)
VHH: B15 VHH with A60T, G73N, V77W, Y78S, I105N
notes: also called F0103387G04(L11V, A12V, K33R, R39Q, S50Y, S56D, G73N, T83R, V89L, N93R)

Bmax [1]: 100%
EC50 [1]: 17 nM
Bmax [2]: 100%
EC50 [2]: 8 nM
B20: F010301845 (VHH)
VHH: B15 VHH with A60T, Y78S, I105N
notes: also called F0103387G04(L11V, A12V, K33R, R39Q, S50Y, S56D, W78V, T83R, V89L, N93R)

Bmax [1]: 99%
EC50 [1]: 30 nM
Bmax [2]: 100%
EC50 [2]: 21 nM
B21: F010302320 (VHH)
VHH: B15 VHH with G73A, I105N
notes: also called F0103387G04(L11V, A12V, K33R, R39Q, S50Y, S56D, T60A, G73A, W78V, S79Y, T83R, V89L, N93R)

Bmax [1]: 100%
EC50 [1]: 67 nM
Bmax [2]: 100%
EC50 [2]: 29 nM
B22: F010301847 (VHH)
VHH: B15 VHH with G73N, R76N, I105N
notes: also called F0103387G04(L11V, A12V, K33R, R39Q, S50Y, S56D, T60A, G73N, R76N, W78V, S79Y, T83R, V89L, N93R)

Bmax [1]: 100%
EC50 [1]: 7.2 nM
Bmax [2]: 23%
EC50 [2]: 39 nM
B23: F010302315 (VHH)
VHH: B15 VHH with D101R
notes: also called F0103387G04(L11V, A12V, K33R, R39Q, S50Y, S56D, T60A, W78V, S79Y, T83R, V89L, N93R, D99R, N100cI)

Bmax [1]: 100%
EC50 [1]: 15 nM
Bmax [2]: 100%
EC50 [2]: 7.9 nM
B24: F010301842 (VHH)
VHH: B15 VHH with V77W, Y78S, I105N
notes: also called F0103387G04(L11V, A12V, K33R, R39Q, S50Y, S56D, T60A, T83R, V89L, N93R)

Bmax [1]: 100%
EC50 [1]: 21 nM
Bmax [2]: 100%
EC50 [2]: 11 nM
B25: F010301846 (VHH)
VHH: B15 VHH with A60T, V77W, I105N
notes: also called F0103387G04(L11V, A12V, K33R, R39Q, S50Y, S56D, S79Y, T83R, V89L, N93R)

Bmax [1]: 100%
EC50 [1]: 23 nM
Bmax [2]: 100%
EC50 [2]: 11 nM
B26: F010301844 (VHH)
VHH: B15 VHH with A60T, R76N, V77W, Y78S, I105N
notes: also called F0103387G04(L11V, A12V, K33R, R39Q, S50Y, S56D, R76N, T83R, V89L, N93R)

Bmax [1]: 100%
EC50 [1]: 38 nM
Bmax [2]: 100%
EC50 [2]: 18 nM
B27: F010301866 (VHH)
VHH: B15 VHH with R76N, I105N
notes: also called F0103387G04(L11V, A12V, K33R, R39Q, S50Y, S56D, T60A, R76N, W78V, S79Y, T83R, V89L, N93R)

Bmax [1]: 100%
EC50 [1]: 38 nM
Bmax [2]: 96%
EC50 [2]: 34 nM
B28: F010302313 (VHH)
VHH: B15 VHH with G73A
notes: also called F0103387G04(L11V, A12V, K33R, R39Q, S50Y, S56D, T60A, G73A, W78V, S79Y, T83R, V89L, N93R, N100cI)

Bmax [1]: 100%
EC50 [1]: 17 nM
Bmax [2]: 100%
EC50 [2]: 8 nM
B29: F010301656 (VHH)
VHH: B15 VHH with V11L, V12A, Q39R, A60T, V77W, Y78S, R85T, L91V, I105N
notes: also called F0103387G04(K33R, S50Y, S56D, N93R)

Bmax [1]: 100%
EC50 [1]: 44 nM
Bmax [2]: 100%
EC50 [2]: 19 nM
B30: F010301848 (VHH)
VHH: B15 VHH with G73N, I105N
notes: also called F0103387G04(L11V, A12V, K33R, R39Q, S50Y, S56D, T60A, G73N, W78V, S79Y, T83R, V89L, N93R)
